Patent publication US20130210709A1 (ANCHOR THERAPEUTICS, published 2013)
* marks the point of attachment. C27H50N3O2SC(O)‑ = not defined here; Palmitoyl = CCCCCCCCCCCCCCCC(=O)*

B1: CXCR4 i1 loop compound 39 (peptide)
peptide: Palmitoyl-MGYQKKLRSMTDKYRLHL-NH2
SMILES: CCCCCCCCCCCCCCCC(=O)N[C@@H](CCSC)C(=O)NCC(=O)N[C@@H](Cc1ccc(O)cc1)C(=O)N[C@@H](CCC(N)=O)C(=O)N[C@@H](CCCCN)C(=O)N[C@@H](CCCCN)C(=O)N[C@@H](CC(C)C)C(=O)N[C@@H](CCCNC(=N)N)C(=O)N[C@@H](CO)C(=O)N[C@@H](CCSC)C(=O)N[C@H](C(=O)N[C@@H](CC(=O)O)C(=O)N[C@@H](CCCCN)C(=O)N[C@@H](Cc1ccc(O)cc1)C(=O)N[C@@H](CCCNC(=N)N)C(=O)N[C@@H](CC(C)C)C(=O)N[C@@H](Cc1c[nH]cn1)C(=O)N[C@@H](CC(C)C)C(N)=O)[C@@H](C)O
B2: CXCR4 i1 loop compound 42 (peptide)
peptide: Palmitoyl-KKLRSMTDKYRLHL-NH2
SMILES: CCCCCCCCCCCCCCCC(=O)N[C@@H](CCCCN)C(=O)N[C@@H](CCCCN)C(=O)N[C@@H](CC(C)C)C(=O)N[C@@H](CCCNC(=N)N)C(=O)N[C@@H](CO)C(=O)N[C@@H](CCSC)C(=O)N[C@H](C(=O)N[C@@H](CC(=O)O)C(=O)N[C@@H](CCCCN)C(=O)N[C@@H](Cc1ccc(O)cc1)C(=O)N[C@@H](CCCNC(=N)N)C(=O)N[C@@H](CC(C)C)C(=O)N[C@@H](Cc1c[nH]cn1)C(=O)N[C@@H](CC(C)C)C(N)=O)[C@@H](C)O
B3: CXCR4 i1 loop compound 40 (peptide)
peptide: Palmitoyl-YQKKLRSMTDKYRLHLSV-NH2
SMILES: CCCCCCCCCCCCCCCC(=O)N[C@@H](Cc1ccc(O)cc1)C(=O)N[C@@H](CCC(N)=O)C(=O)N[C@@H](CCCCN)C(=O)N[C@@H](CCCCN)C(=O)N[C@@H](CC(C)C)C(=O)N[C@@H](CCCNC(=N)N)C(=O)N[C@@H](CO)C(=O)N[C@@H](CCSC)C(=O)N[C@H](C(=O)N[C@@H](CC(=O)O)C(=O)N[C@@H](CCCCN)C(=O)N[C@@H](Cc1ccc(O)cc1)C(=O)N[C@@H](CCCNC(=N)N)C(=O)N[C@@H](CC(C)C)C(=O)N[C@@H](Cc1c[nH]cn1)C(=O)N[C@@H](CC(C)C)C(=O)N[C@@H](CO)C(=O)N[C@H](C(N)=O)C(C)C)[C@@H](C)O
B4: CXCR4 i1 loop compound 41 (peptide)
peptide: Palmitoyl-KKLRSMTDKYRLHLSV-NH2
SMILES: CCCCCCCCCCCCCCCC(=O)N[C@@H](CCCCN)C(=O)N[C@@H](CCCCN)C(=O)N[C@@H](CC(C)C)C(=O)N[C@@H](CCCNC(=N)N)C(=O)N[C@@H](CO)C(=O)N[C@@H](CCSC)C(=O)N[C@H](C(=O)N[C@@H](CC(=O)O)C(=O)N[C@@H](CCCCN)C(=O)N[C@@H](Cc1ccc(O)cc1)C(=O)N[C@@H](CCCNC(=N)N)C(=O)N[C@@H](CC(C)C)C(=O)N[C@@H](Cc1c[nH]cn1)C(=O)N[C@@H](CC(C)C)C(=O)N[C@@H](CO)C(=O)N[C@H](C(N)=O)C(C)C)[C@@H](C)O
B5: CXCR4 i3 loop compound 89 (peptide)
peptide: Palmitoyl-KLSHSKGHQKRKALKTTVIL-NH2
SMILES: CCCCCCCCCCCCCCCC(=O)N[C@@H](CCCCN)C(=O)N[C@@H](CC(C)C)C(=O)N[C@@H](CO)C(=O)N[C@@H](Cc1c[nH]cn1)C(=O)N[C@@H](CO)C(=O)N[C@@H](CCCCN)C(=O)NCC(=O)N[C@@H](Cc1c[nH]cn1)C(=O)N[C@@H](CCC(N)=O)C(=O)N[C@@H](CCCCN)C(=O)N[C@@H](CCCNC(=N)N)C(=O)N[C@@H](CCCCN)C(=O)N[C@@H](C)C(=O)N[C@@H](CC(C)C)C(=O)N[C@@H](CCCCN)C(=O)N[C@H](C(=O)N[C@H](C(=O)N[C@H](C(=O)N[C@H](C(=O)N[C@@H](CC(C)C)C(N)=O)[C@@H](C)CC)C(C)C)[C@@H](C)O)[C@@H](C)O
B6: Compound No. 90 (Pal-KLSHSKGHQKRKALKTTV-amide) (peptide)
peptide: Palmitoyl-KLSHSKGHQKRKALKTTV-NH2
SMILES: CCCCCCCCCCCCCCCC(=O)N[C@@H](CCCCN)C(=O)N[C@@H](CC(C)C)C(=O)N[C@@H](CO)C(=O)N[C@@H](Cc1c[nH]cn1)C(=O)N[C@@H](CO)C(=O)N[C@@H](CCCCN)C(=O)NCC(=O)N[C@@H](Cc1c[nH]cn1)C(=O)N[C@@H](CCC(N)=O)C(=O)N[C@@H](CCCCN)C(=O)N[C@@H](CCCNC(=N)N)C(=O)N[C@@H](CCCCN)C(=O)N[C@@H](C)C(=O)N[C@@H](CC(C)C)C(=O)N[C@@H](CCCCN)C(=O)N[C@H](C(=O)N[C@H](C(=O)N[C@H](C(N)=O)C(C)C)[C@@H](C)O)[C@@H](C)O
B7: CXCR4 i3 loop compound 94 (peptide)
peptide: Palmitoyl-KLSHSKGHQKRKA-NH2
SMILES: CCCCCCCCCCCCCCCC(=O)N[C@@H](CCCCN)C(=O)N[C@@H](CC(C)C)C(=O)N[C@@H](CO)C(=O)N[C@@H](Cc1c[nH]cn1)C(=O)N[C@@H](CO)C(=O)N[C@@H](CCCCN)C(=O)NCC(=O)N[C@@H](Cc1c[nH]cn1)C(=O)N[C@@H](CCC(N)=O)C(=O)N[C@@H](CCCCN)C(=O)N[C@@H](CCCNC(=N)N)C(=O)N[C@@H](CCCCN)C(=O)N[C@@H](C)C(N)=O
B8: CXCR4 i3 loop compound 93 (peptide)
peptide: Palmitoyl-KLSHSKGHQKRKAL-NH2
SMILES: CCCCCCCCCCCCCCCC(=O)N[C@@H](CCCCN)C(=O)N[C@@H](CC(C)C)C(=O)N[C@@H](CO)C(=O)N[C@@H](Cc1c[nH]cn1)C(=O)N[C@@H](CO)C(=O)N[C@@H](CCCCN)C(=O)NCC(=O)N[C@@H](Cc1c[nH]cn1)C(=O)N[C@@H](CCC(N)=O)C(=O)N[C@@H](CCCCN)C(=O)N[C@@H](CCCNC(=N)N)C(=O)N[C@@H](CCCCN)C(=O)N[C@@H](C)C(=O)N[C@@H](CC(C)C)C(N)=O
B9: CXCR4 i3 loop compound 92 (peptide)
peptide: Palmitoyl-KLSHSKGHQKRKALK-NH2
SMILES: CCCCCCCCCCCCCCCC(=O)N[C@@H](CCCCN)C(=O)N[C@@H](CC(C)C)C(=O)N[C@@H](CO)C(=O)N[C@@H](Cc1c[nH]cn1)C(=O)N[C@@H](CO)C(=O)N[C@@H](CCCCN)C(=O)NCC(=O)N[C@@H](Cc1c[nH]cn1)C(=O)N[C@@H](CCC(N)=O)C(=O)N[C@@H](CCCCN)C(=O)N[C@@H](CCCNC(=N)N)C(=O)N[C@@H](CCCCN)C(=O)N[C@@H](C)C(=O)N[C@@H](CC(C)C)C(=O)N[C@@H](CCCCN)C(N)=O
B10: Compound No. 88 (Pal-SKLSHSKGHQKRKALKTTVIL-amide) (peptide)
peptide: Palmitoyl-SKLSHSKGHQKRKALKTTVIL-NH2
SMILES: CCCCCCCCCCCCCCCC(=O)N[C@@H](CO)C(=O)N[C@@H](CCCCN)C(=O)N[C@@H](CC(C)C)C(=O)N[C@@H](CO)C(=O)N[C@@H](Cc1c[nH]cn1)C(=O)N[C@@H](CO)C(=O)N[C@@H](CCCCN)C(=O)NCC(=O)N[C@@H](Cc1c[nH]cn1)C(=O)N[C@@H](CCC(N)=O)C(=O)N[C@@H](CCCCN)C(=O)N[C@@H](CCCNC(=N)N)C(=O)N[C@@H](CCCCN)C(=O)N[C@@H](C)C(=O)N[C@@H](CC(C)C)C(=O)N[C@@H](CCCCN)C(=O)N[C@H](C(=O)N[C@H](C(=O)N[C@H](C(=O)N[C@H](C(=O)N[C@@H](CC(C)C)C(N)=O)[C@@H](C)CC)C(C)C)[C@@H](C)O)[C@@H](C)O
B11: CXCR4 i3 loop compound 95 (peptide)
peptide: Palmitoyl-LSHSKGHQKRKALK-NH2
SMILES: CCCCCCCCCCCCCCCC(=O)N[C@@H](CC(C)C)C(=O)N[C@@H](CO)C(=O)N[C@@H](Cc1c[nH]cn1)C(=O)N[C@@H](CO)C(=O)N[C@@H](CCCCN)C(=O)NCC(=O)N[C@@H](Cc1c[nH]cn1)C(=O)N[C@@H](CCC(N)=O)C(=O)N[C@@H](CCCCN)C(=O)N[C@@H](CCCNC(=N)N)C(=O)N[C@@H](CCCCN)C(=O)N[C@@H](C)C(=O)N[C@@H](CC(C)C)C(=O)N[C@@H](CCCCN)C(N)=O

These binders were tested against T1, CXCR4 receptor (human, UniProt P61073 1-352) (assay: cell-based or functional assay).
T1 sequence (P61073 whole entry): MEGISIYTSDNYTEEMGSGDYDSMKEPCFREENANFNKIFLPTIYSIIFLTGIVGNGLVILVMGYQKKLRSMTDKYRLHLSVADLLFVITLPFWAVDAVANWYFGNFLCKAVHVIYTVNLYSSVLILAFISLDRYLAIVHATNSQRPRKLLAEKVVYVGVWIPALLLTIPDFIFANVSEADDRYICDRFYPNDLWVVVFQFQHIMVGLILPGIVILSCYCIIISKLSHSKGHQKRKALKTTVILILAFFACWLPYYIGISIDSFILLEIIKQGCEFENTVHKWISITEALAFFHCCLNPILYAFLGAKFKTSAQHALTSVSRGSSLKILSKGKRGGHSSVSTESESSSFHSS

| Binder | AUC (% of), CHTX, CEM, 1.0 uM [%] | AUC (% of), CHTX, SUP B-15, 1.0 uM [%] | Max (% of), CHTX, CEM, 1.0 uM [%] | Max (% of), CHTX, SUP B-15, 1.0 uM [%] | Peak Ratio, CHTX, CEM, 1.0 uM | Peak Ratio, CHTX, SUP B-15, 1.0 uM | Peak Ratio, CHTX, CEM, 1.0 uM (row labelled 46, sequence of 42) |
| --- | --- | --- | --- | --- | --- | --- | --- |
| B1 | 37.5 | 47.4 | 59.7 | 37.6 | 0.04 | 0.2 | – |
| B2 | – | 43.8 | – | 33.5 | – | 0.2 | 0.01 |
| B3 | – | 71.9 | – | 71.2 | – | 0.2 | – |
| B4 | 66.7 | 51.7 | 76.8 | 41.7 | 0.01 | 0.04 | – |

Target: T1, CXCR4 receptor
Assay: cell-based or functional assay
Remark: another data set of the same source

| Binder | AUC (% of vehicle), chemotaxis, CEM, 1.0 uM | Max (% of vehicle), chemotaxis, CEM, 1.0 uM | Peak Ratio, chemotaxis, CEM, 1.0 uM | Peak Ratio, chemotaxis, CEM, 0.01 uM | Peak Ratio, chemotaxis, CEM, 0.03 uM | Peak Ratio, chemotaxis, CEM, 0.1 uM | Peak Ratio, chemotaxis, CEM, 0.3 uM | Peak Ratio, chemotaxis, CEM, 3.0 uM |
| --- | --- | --- | --- | --- | --- | --- | --- | --- |
| {C27H50N3O2SC(O)‑}-HSKGHQKRKQALK-NH2 (reading uncertain) [CXCR4 i3 loop compound 87] | 52.6 % of vehicle | 76.1 % of vehicle | 0.2 | – | – | – | – | – |
| B5 | 37.5 % of vehicle | 59.7 % of vehicle | 0.04 | – | – | – | – | – |
| B6 | – | – | – | 1 | 1 | 0.2 | 1 | 1 |
| B7 | 65.3 % of vehicle | 80.5 % of vehicle | 1 | – | – | – | – | – |
| B8 | 15.9 % of vehicle | 54.8 % of vehicle | 0.2 | – | – | – | – | – |
| B9 | – | – | 0.2 | 0.2 | 0.2 | 0.2 | 0.2 | 1 |
| B10 | 144 % of vehicle | 132 % of vehicle | 1 | 0.04 | 0.04 | 0.04 | 0.2 | 1 |
| B11 | 77.5 % of vehicle | 92.1 % of vehicle | 1 | – | – | – | – | – |
